# Legend:
# [1] = molecular target: NF-kB p65 (Rel A) homodimer (UniProt Q04206); conditions: 1:1 stoichiometry
# [2] = molecular target: NF-kB p50 homodimer (UniProt P19838); conditions: also captured on SELDI array; lost on more stringent wash
# Sequence of NF-kB p50 homodimer (P19838 1-433): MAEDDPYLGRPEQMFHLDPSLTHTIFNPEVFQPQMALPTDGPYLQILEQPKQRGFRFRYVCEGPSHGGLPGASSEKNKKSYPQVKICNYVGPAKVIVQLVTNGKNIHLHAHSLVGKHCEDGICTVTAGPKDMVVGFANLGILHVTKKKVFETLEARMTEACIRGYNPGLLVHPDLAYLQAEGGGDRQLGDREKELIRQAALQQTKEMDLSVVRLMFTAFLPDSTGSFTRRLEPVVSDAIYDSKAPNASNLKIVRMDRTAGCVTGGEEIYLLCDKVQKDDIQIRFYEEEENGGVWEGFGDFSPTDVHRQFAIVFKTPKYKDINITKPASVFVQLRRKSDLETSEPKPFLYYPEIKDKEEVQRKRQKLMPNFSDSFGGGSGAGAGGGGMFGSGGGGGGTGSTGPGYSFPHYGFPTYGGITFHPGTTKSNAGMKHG
# Sequence of NF-kB p65 (Rel A) homodimer (Q04206 whole entry): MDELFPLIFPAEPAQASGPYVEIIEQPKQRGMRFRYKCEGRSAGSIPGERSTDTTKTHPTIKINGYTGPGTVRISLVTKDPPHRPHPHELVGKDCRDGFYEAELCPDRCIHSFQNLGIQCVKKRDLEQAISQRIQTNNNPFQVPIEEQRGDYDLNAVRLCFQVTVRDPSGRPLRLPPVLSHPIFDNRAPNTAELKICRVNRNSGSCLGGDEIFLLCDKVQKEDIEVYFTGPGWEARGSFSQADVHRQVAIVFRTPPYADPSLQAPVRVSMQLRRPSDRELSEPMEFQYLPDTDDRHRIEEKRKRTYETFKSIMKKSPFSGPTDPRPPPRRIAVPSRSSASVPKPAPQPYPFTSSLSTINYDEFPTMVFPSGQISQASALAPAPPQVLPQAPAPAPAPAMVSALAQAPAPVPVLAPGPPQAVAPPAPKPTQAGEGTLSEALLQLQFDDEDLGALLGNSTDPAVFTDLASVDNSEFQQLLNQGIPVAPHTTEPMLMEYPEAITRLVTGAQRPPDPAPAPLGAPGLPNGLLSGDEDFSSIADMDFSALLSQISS
substance,measurement,setting,value
IgkB 22-mer duplex (NF-kB promoter element),Kd,[1],4 nM
same,Kd,[2],4 nM

# Reference: US20110212843
